Results as given in US20240076389A1 (NATIONAL RESEARCH COUNCIL OF CANADA, published 2024).

Legend:
[1] = molecular target: T1, mouse AXL extracellular domain (Sino cat. 51026-M08H) (mouse, UniProt Q00993 19-445); experiment: ELISA on coated mouse AXL ECD (100 ng/well), VHH-Fc
T1 construct: extracellular domain; Bought protein; also called mouse AXL ECD
T1 sequence (looked up): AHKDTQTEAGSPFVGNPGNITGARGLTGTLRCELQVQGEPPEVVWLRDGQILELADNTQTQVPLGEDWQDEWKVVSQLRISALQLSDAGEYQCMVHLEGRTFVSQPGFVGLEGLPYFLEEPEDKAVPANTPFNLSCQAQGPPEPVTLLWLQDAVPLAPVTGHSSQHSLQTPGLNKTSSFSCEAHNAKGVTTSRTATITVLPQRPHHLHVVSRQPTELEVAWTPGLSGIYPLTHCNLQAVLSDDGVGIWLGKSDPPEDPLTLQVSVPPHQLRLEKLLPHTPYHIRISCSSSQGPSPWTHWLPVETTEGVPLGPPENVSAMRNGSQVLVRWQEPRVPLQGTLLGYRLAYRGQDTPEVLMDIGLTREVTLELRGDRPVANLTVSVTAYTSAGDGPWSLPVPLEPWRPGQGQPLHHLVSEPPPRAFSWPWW
Procedure: (§1) ELISA. ELISAs against human, cyno and mouse AXL ECDs were conducted by immobilizing 100 ng of each protein in wells of Nunc MaxiSorp microplates overnight. Human AXL (aa 1-451) and cyno AXL (aa 1-449) were produced recombinantly as described in Example 10. Mouse AXL was purchased from Sino (cat. 51026-M08H). The next day, plates were blocked with 5% (w/v) dried milk in PBS. Murine mAbs (either hybridoma- or recombinantly-produced) or VHH-Fcs were diluted in PBS containing 1% BSA and 0.1% Tween-20 and added to wells for 2 hours at room temperature. Wells were washed 5× with PBS containing 0.1% Tween-20, then HRP-labeled protein A (diluted 1:1000 in PBS containing 1% BSA and 0.1% Tween™-20) was added to wells for 1 hour at room temperature. Wells were washed again 5× with PBS/0.1% Tween-20 and developed using TMB substrate. Absorbance was measured at 450 nm. As a positive control for mouse AXL binding, a commercial anti-mouse AXL mAb (clone 175128, R&D Systems MAB8541, rat IgG2A) was used and detected with donkey […] secondary antibody.

[2] = molecular target: T2, human AXL expressed on the cell surface of tumor cell lines (human, UniProt P30530 26-894); experiment: FACS on MDA-MB-231 luciferase cells, apparent Kd, human Fc format
T2 construct: whole, on cells; also called cell surface-expressed AXL; cell-based AXL
T2 sequence (looked up): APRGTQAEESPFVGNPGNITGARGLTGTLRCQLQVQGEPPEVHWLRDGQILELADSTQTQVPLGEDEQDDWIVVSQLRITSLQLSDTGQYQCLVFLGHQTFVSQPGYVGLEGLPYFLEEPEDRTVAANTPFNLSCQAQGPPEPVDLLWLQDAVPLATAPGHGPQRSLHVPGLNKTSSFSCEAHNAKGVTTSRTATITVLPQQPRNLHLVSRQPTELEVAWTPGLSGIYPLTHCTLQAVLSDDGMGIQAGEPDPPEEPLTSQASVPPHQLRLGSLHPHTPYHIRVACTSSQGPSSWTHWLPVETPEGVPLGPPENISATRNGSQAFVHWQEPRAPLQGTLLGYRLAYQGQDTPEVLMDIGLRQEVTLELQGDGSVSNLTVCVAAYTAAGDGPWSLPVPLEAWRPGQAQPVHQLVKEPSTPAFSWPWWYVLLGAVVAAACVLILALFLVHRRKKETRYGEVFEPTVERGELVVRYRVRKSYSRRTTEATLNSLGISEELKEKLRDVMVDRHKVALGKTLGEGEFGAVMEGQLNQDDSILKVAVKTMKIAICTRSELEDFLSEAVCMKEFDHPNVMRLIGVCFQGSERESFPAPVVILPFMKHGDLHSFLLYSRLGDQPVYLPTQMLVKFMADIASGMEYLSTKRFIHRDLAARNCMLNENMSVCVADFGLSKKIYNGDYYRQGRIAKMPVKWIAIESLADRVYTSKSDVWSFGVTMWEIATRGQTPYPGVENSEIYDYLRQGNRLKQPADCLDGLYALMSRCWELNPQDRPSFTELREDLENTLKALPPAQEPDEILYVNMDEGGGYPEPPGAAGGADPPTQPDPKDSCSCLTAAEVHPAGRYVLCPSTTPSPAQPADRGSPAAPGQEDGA
Procedure: (§2) FACS binding assay. Adherent cells were dissociated with non-enzymatic Sigma Cell Dissociation Solution (Cat. No. C5789). Cells suspensions were added to polypropylene, V-bottom 96-well plates and incubated for 2 hours on ice with primary antibodies at concentrations ranging from 100 nM to 0.001 nM or at a single dose of 100 nM (for the non-specific control). After incubation and washes, cells were incubated with fluorescently labeled secondary antibody (Alexa Fluor® 488 anti-human IgG from Jackson Cat. No 709-546-098) for 1 hour on ice, then washed. Cell viability was determined using Fixable viability dye 450 (20 min on ice). Stained cells were fixed in 1% formaldehyde at 4° C. and stored at 4° C. until acquisition which was performed the next day.
(§3) Binding of recombinant chimeric Abs to three cell lines was assessed by FACS as described above. The apparent Bmax and Kd determination is shown below in Table 14.

[3] = molecular target: T2, human AXL expressed on the cell surface …; experiment: FACS on SKOV3 cells, apparent Kd, human Fc format
Procedure: as §2, §3

[4] = molecular target: T2, human AXL expressed on the cell surface …; experiment: FACS on SKOV3 cells, apparent Kd
Procedure: as §2, §3

[5] = molecular target: T1, mouse AXL extracellular domain (Sino …); experiment: ELISA on coated mouse AXL ECD (100 ng/well)
Procedure: as §1

| Binder | binding result [1] | Kd [2] | Kd [3] | Kd [4] | binding result [5] |
| --- | --- | --- | --- | --- | --- |
| NRC-sdAb001-Fc (VHH-human IgG1 Fc fusion) (Fc fusion, VHH fused N-terminally to human IgG1 Fc, made in HEK293 cells; also called NRC-sdAb0001-Fc; NRC-sdAb001-hIgG1; not shown: human IgG1 Fc) QVKLEESGGGLVQAGGSLRLSCTASASISSFDIMGWYRQAPGKQRELVAAITTLDIANYRDSVKGRFTISRDNAKNTVYLQMDSLKPEDTARYHCAAFQSDQNYWGQGTQVTVSS | no binding | 233 pM | 112 pM | – | – |
| hFC-F107-10G1 (antibody, human IgG1, kappa, V domains shown, Chimeric mAb, human IgG1 / human kappa constant regions; also called mAb F107-10G1) VH: EVNLVESGGGVVKPGASLKLSCEASGFTFSNYGMSWVRQTSDKRLEWVASISGGGGRTYYLDNVKGRFIISRENAKNTLYLQMSSLKSEDTALFYCARGARASYFAMDYWGQGSSVTVSS VL: VIVMTQSHKFMSTSVGDRVSITCKASQDVTTAVAWYQQKPGQSPKLLIYWASTRHTGVPDRFTGSGSGTDYSLTISNVQTEDLAFYYCQQHFTTPLTFGAGTKLELKR | – | – | – | 60.8 pM | no binding |
